Results from the supplement of paper PMC10724198.
± gives the standard deviation of the averaged measurements.

Legend:
Saccharomyces cerevisiae [1] = test: protein stability index of tFT-peptide fusion (C-terminal peptide) (PSI (0-1 scale)); higher = more stable (slower turnover)
Protocol: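 MPS profiling in S. cerevisiae of the tFT-X12 degron library: putative degron peptides plus stable controls, 12 aa, fused to the C-terminus of a sfGFP-mCherry timer. Cells are FACS-sorted into 8 mCherry/sfGFP bins and deep-sequenced. PSI runs from 0 (unstable) to 1 (stable). Backgrounds are wild type, das1Δ and doa10Δ at 30 °C, and wild type, das1Δ, cdc34-1 and cdc53-1 at 37 °C; 2-3 technical replicates each.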

Saccharomyces cerevisiae [2] = test: as above; settings: genetic background: wild type; temperature: 30 C
[3] = genetic background: cdc34-1, temperature: 37 C
[4] = genetic background: cdc53-1, temperature: 37 C
[5] = genetic background: das1 deletion, temperature: 30 C
[6] = genetic background: das1 deletion, temperature: 37 C
[7] = genetic background: doa10 deletion, temperature: 30 C
[8] = genetic background: wild type, temperature: 30 C
[9] = genetic background: wild type, temperature: 37 C
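Also: PSI is a weighted mean of sequencing reads over stability bins, variants kept only with over 10 reads, mCherry proximal and sfGFP distal, peptide attached via GGGS linker.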

Sequence	protein stability index (Saccharomyces cerevisiae [1]; [3])	protein stability index (Saccharomyces cerevisiae [1]; [4])	protein stability index (Saccharomyces cerevisiae [1]; [5])	protein stability index (Saccharomyces cerevisiae [1]; [6])	protein stability index (Saccharomyces cerevisiae [1]; [7])	protein stability index (Saccharomyces cerevisiae [1]; [8])	protein stability index (Saccharomyces cerevisiae [1]; [9])	protein stability index (Saccharomyces cerevisiae [2])
RLRHPPRLSTLC	0.635 ± 0.025	0.743 ± 0.00093	0.629 ± 0.029	0.73873 ± 0.00026	0.306 ± 0.018	0.338 ± 0.023	0.594 ± 0.069	0.463 ± 0.0095
WISDRCPSVLCY	0.0407 ± 0.0022	0.0838 ± 0.0009	0.185 ± 0.025	0.206 ± 0.011	0.143 ± 0.011	0.157 ± 0.028	0.184 ± 0.017	0.251 ± 0.015
LVFSFFFLFFFM	0.449 ± 0.053	0.47 ± 0.029	0.375 ± 0.03	0.46047 ± 0.00043	0.375 ± 0.027	0.287 ± 0.05	0.442 ± 0.11	0.394 ± 0.044
GIGYMFLNVWLV	0.234 ± 0.036	0.302 ± 0.0072	0.246 ± 0.024	0.4208 ± 0.00089	0.0963 ± 0.011	0.0848 ± 0.015	0.122 ± 0.017	0.153 ± 0.022
GICLVLVSDIWI	0.579 ± 0.032	0.558 ± 0.0064	0.413 ± 0.026	0.599 ± 0.018	0.374 ± 0.04	0.39 ± 0.014	0.568 ± 0.029	0.441 ± 0.018
LPILFPAALRLY	0.552 ± 0.0097	0.577 ± 0.028	0.521 ± 0.025	0.604 ± 0.01	0.267 ± 0.013	0.285 ± 0.026	0.455 ± 0.029	0.44 ± 0.02
FSCSRNVLVTVV	0.192 ± 0.029	0.197 ± 0.019	0.229 ± 0.029	0.344 ± 0.0087	0.178 ± 0.015	0.209 ± 0.013	0.256 ± 0.0056	0.32 ± 0.049
WSSWFLWVIFRL	0.176 ± 0.011	0.173 ± 0.023	0.34 ± 0.035	0.433 ± 0.056	0.459 ± 0.0077	0.289 ± 0.035	0.288 ± 0.035	0.348 ± 0.02
FVLWYFCCVGCM	0.241 ± 0.017	0.305 ± 0.018	0.232 ± 0.026	0.366 ± 0.011	0.196 ± 0.015	0.226 ± 0.03	0.342 ± 0.03	0.321 ± 0.016
FFVEKRVFFGII	0.604 ± 0.017	0.733 ± 0.015	0.593 ± 0.026	0.738 ± 0.029	0.197 ± 0.013	0.242 ± 0.015	0.408 ± 0.018	0.369 ± 0.009
DFFTSFSLFFFL	0.674 ± 0.028	0.7814 ± 0.0048	0.635 ± 0.036	0.736 ± 0.008	0.638 ± 0.051	0.636 ± 0.018	0.701 ± 0.008	0.0727 ± 0.039
FRCRFLLPFYSV	0.673 ± 0.013	0.724 ± 0.0096	0.632 ± 0.0089	0.733 ± 0.01	0.403 ± 0.013	0.438 ± 0.014	0.603 ± 0.0033	0.482 ± 0.019
WALWGFVFWDWW	0.402 ± 0.049	0.476 ± 0.016	0.377 ± 0.035	0.5133 ± 0.0029	0.3786 ± 0.0011	0.365 ± 0.023	0.501 ± 0.0078	0.497 ± 0.03
IVCAVTSIFLFF	0.306 ± 0.015	0.45 ± 0.0079	0.288 ± 0.014	0.452 ± 0.016	0.243 ± 0.01	0.249 ± 0.035	0.422 ± 0.0045	0.315 ± 0.021
LGDPPCRMIVVR	0.532 ± 0.026	0.58581 ± 4.2e-05	0.353 ± 0.038	0.5869 ± 0.0044	0.339 ± 0.011	0.376 ± 0.026	0.558 ± 0.0075	0.466 ± 0.033
ICQFFFFALLSF	0.109 ± 0.04	0.0674 ± 0.0054	0.164 ± 0.016	0.244 ± 0.021	0.238 ± 0.011	0.128 ± 0.018	0.19 ± 0.0063	0.178 ± 0.013
VYTVGFVCWLVY	0.203 ± 0.0067	0.27 ± 0.013	0.208 ± 0.021	0.3458 ± 0.0024	0.185 ± 0.014	0.176 ± 0.025	0.323 ± 0.016	0.316 ± 0.026
FVRCFWPFVFVF	0.17 ± 0.01	0.142 ± 0.021	0.222 ± 0.031	0.332 ± 0.0095	0.139 ± 0.0072	0.126 ± 0.0099	0.14 ± 0.012	0.203 ± 0.023
PPRDPGGLFTPF	0.732 ± 0.017	0.7854 ± 0.0062	0.679 ± 0.0077	0.7763 ± 0.003	0.703 ± 0.022	0.674 ± 0.028	0.767 ± 0.039	0.71756 ± 0.00059
LCYVLLWLLCRS	0.45 ± 0.017	0.516 ± 0.049	0.349 ± 0.024	0.512 ± 0.0074	0.33 ± 0.0069	0.353 ± 0.026	0.501 ± 0.033	0.448 ± 0.027

Sequence	protein stability index (Saccharomyces cerevisiae [1]; [3])	protein stability index (Saccharomyces cerevisiae [1]; [4])	protein stability index (Saccharomyces cerevisiae [1]; [5])	protein stability index (Saccharomyces cerevisiae [1]; [6])	protein stability index (Saccharomyces cerevisiae [1]; [7])	protein stability index (Saccharomyces cerevisiae [1]; [8])	protein stability index (Saccharomyces cerevisiae [1]; [9])	protein stability index (Saccharomyces cerevisiae [2])
SNFDVRRLLVIQ	0.616 ± 0.073	0.702 ± 0.038	0.588 ± 0.021	0.697 ± 0.0065	0.29 ± 0.0061	0.329 ± 0.039	0.54 ± 0.014	0.455 ± 0.033
PCVCFIILGMLS	0.42 ± 0.013	0.515 ± 0.012	0.322 ± 0.035	0.563 ± 0.01	0.285 ± 0.013	0.308 ± 0.016	0.52 ± 0.021	0.449 ± 0.012
FILFSEMFASSV	0.132 ± 0.021	0.175 ± 0.0083	0.265 ± 0.026	0.149 ± 0.02	0.28 ± 0.015	0.255 ± 0.028	0.137 ± 0.021	0.26 ± 0.0085
LPPPYSPRLFHN	0.552 ± 0.065	0.7103 ± 0.0065	0.699 ± 0.014	0.755 ± 0.022	0.146 ± 0.016	0.166 ± 0.016	0.265 ± 0.01	0.241 ± 0.1
VIAYSLLSWGDF	0.308 ± 0.0034	0.341 ± 0.019	0.378 ± 0.04	0.319 ± 0.023	0.403 ± 0.029	0.371 ± 0.021	0.305 ± 0.016	0.371 ± 0.028
GCWRVELLVFMC	0.0459 ± 0.0044	0.205 ± 0.011	0.185 ± 0.03	0.33 ± 0.015	0.053 ± 0.02	0.0595 ± 0.017	0.0748 ± 0.03	0.0681 ± 0.02
IIIGTLLYVNVR	0.279 ± 0.0059	0.323 ± 0.033	0.243 ± 0.03	0.403 ± 0.012	0.188 ± 0.018	0.215 ± 0.029	0.39 ± 0.041	0.29 ± 0.022
PLPCFVLRLPVF	0.39 ± 0.037	0.429 ± 0.033	0.298 ± 0.031	0.465 ± 0.0064	0.267 ± 0.011	0.304 ± 0.024	0.4379 ± 0.0024	0.402 ± 0.02
DLIGSVRRLFCV	0.651 ± 0.042	0.725 ± 0.013	0.621 ± 0.014	0.728 ± 0.017	0.18 ± 0.0082	0.214 ± 0.0082	0.303 ± 0.0047	0.27 ± 0.042
GVYRLCLLLLVY	0.0836 ± 0.015	0.107 ± 0.03	0.183 ± 0.014	0.239 ± 0.021	0.158 ± 0.0074	0.156 ± 0.026	0.237 ± 0.015	0.218 ± 0.034
GGGWGVFVVLWW	0.193 ± 0.012	0.325 ± 0.0065	0.216 ± 0.034	0.4026 ± 0.0031	0.194 ± 0.0027	0.213 ± 0.031	0.355 ± 0.038	0.318 ± 0.028
DLLKAILKIKSL	0.579 ± 0.095	0.704 ± 0.05	0.6279 ± 0.0037	0.7476 ± 0.0011	0.104 ± 0.0099	0.0962 ± 0.017	0.162 ± 0.049	0.171 ± 0.054
GGRWRRRGFFFS	0.6973 ± 0.0024	0.72 ± 0.01	0.702 ± 0.032	0.709 ± 0.026	0.627 ± 0.0095	0.628 ± 0.01	0.673 ± 0.014	0.518 ± 0.097
WWADRLVGVCIV	0.55 ± 0.034	0.539 ± 0.026	0.439 ± 0.024	0.587 ± 0.0076	0.38961 ± 2.3e-05	0.422 ± 0.023	0.5359 ± 0.00088	0.491 ± 0.011
VWICPTLFLLFS	0.486 ± 0.03	0.509 ± 0.0088	0.369 ± 0.05	0.544 ± 0.013	0.45736 ± 0.00021	0.374 ± 0.018	0.529 ± 0.0063	0.455 ± 0.014
YFYIRLGIAYMM	0.421 ± 0.037	0.511 ± 0.056	0.436 ± 0.026	0.503 ± 0.019	0.197 ± 0.013	0.206 ± 0.019	0.264 ± 0.015	0.275 ± 0.027
SFVCFSYYIVNI	0.453 ± 0.021	0.482 ± 0.005	0.377 ± 0.021	0.564 ± 0.022	0.381 ± 0.023	0.363 ± 0.027	0.548 ± 0.049	0.51 ± 0.03
GEGISCLLRRLT	0.662 ± 0.013	0.709 ± 0.018	0.661 ± 0.024	0.713 ± 0.036	0.2625 ± 0.00058	0.286 ± 0.022	0.544 ± 0.033	0.413 ± 0.057
KYKANLGNLKVH	0.596 ± 0.067	0.7161 ± 0.0013	0.632 ± 0.019	0.725 ± 0.029	0.0824 ± 0.011	0.0914 ± 0.05	0.101 ± 0.0031	0.135 ± 0.056
